From patent publication US12686712B2, “Antibody, related use, pharmaceutical composition including method for diagnosing fungal infections, fungal infection diagnosis kit and method for treating fungal infections” (priority 2020, dated 2026)

Assays:
C. albicans [1] = test: Indirect ELISA against intact cells using poly-L-Lysine (PL); type: binding, Candida albicans; conditions: 10^4 and 10^5 cells/ml
Procedure: For this test, C. neoformans (H99), Candida albicans, Giardia lamblia, human lung line cell A549 (ATCC), Escherichia coli and Staphylococcus aureus. Cells were washed in PBS three times and suspended at 10^7 cell/ml density in poly-L-Lysine (5 μg/ml in PBS) for adherence at night at 4° C. The next day, plates were blocked with PBS/BSA 5% and incubated for 1 hour at 37° C., then they are incubated for 1 hour at 37° C. with anti-chitooligomer AcM at 50 μg/ml concentration and diluted at 5 μg/ml. Then, washing with PBS/Tween 0.05% was performed for 3 times and anti-IgM murine peroxidase was added diluted 1:5000 and incubated for 2 hours at 37° C. Plates were washed again and TMB was added and incubated for 30 minutes at 37° C.
Reaction was stopped with HCl 1 N and reading with spectrophotometer at 450 nm. After this trial, seriated dilutions were performed at density of cells 10^7 until 10 cells/ml to fungi and 10^7 until 10^4 cells/ml to other cellular types and tested of AcM anti-chitooligomer at 25 μg/ml concentration, followed by the same procedures abovementioned. […]
In this trial, 10^7 cell/ml of C. albicans were used to perform an absorbance curve, in which it was observed that there was a 25 μg/ml concentration reliable signal of both AcM, as above such value the curve starts to enter in plateau, as provided in FIG. 9. […]

C. albicans [2] = test: Biofilm development, XTT reduction trial; type: cell-based, Candida albicans; conditions: AcM 25 μg/ml, 48 hours at 37° C., vs fungus without treatment, p<0.05
Procedure: (§1) C. neoformans (H99 and Cap67) and Candida albicans were cultivated in Sabouraud media for 24 hours at 30° C. Cellular suspensions were centrifuged for 5 minutes at 3000 g, washed 3 times in PBC and suspended in minimum media (20 mg/ml thiamin, 30 mm glucose, 26 mM glycine, 20 mM MgSO4, and 58.8 mM KH2PO4). Then, they were added to 96-well plates (100 μl/well—1×10^6 células/ml) and cultivated for 48 hours at 37° C. at presence of AcM (HC6/DD11 and AF1/CC5) and AcM anti-GXM 18B7 (only to H99) at 25 μg/ml concentration, keeping under agitation for 30 minutes, for AcM total homogenization with fungi. As control, drug AmB was used at 1 μg/ml concentration.
(§2) Two analysis systems were performed: in the first, cells were washed, so that non-adhering cells were removed and only cells bonded to biofilm under development remained; in the second system, cells were not washed and all cells adhered or not to substrate were quantified.
(§3) Viable cell metabolic activity in both trials was assessed by the method based on decrease of XTT (2-methoxy-4-nitro-5-sulfophenyl)-5-[(phenylamino) carbonyl]-2H-tetrazolium hydroxide) in spectrophotometer at 492 nm of wavelength.
(§4) AcMs were tested (25 μg/ml) against three fungus species (C. albicans, C. neoformans—H99—and acapsular mutant of C. neoformans—Cap67), with control by AcM anti-GXM 18B7 (25 μg/ml) only to H99. In the first assay (FIGS. 14A and B), cellular suspensions were washed to remove non-adhering cells to substrate. […] In second assay (FIGS. 14C and D), cellular suspensions were not washed, and again AcM inhibited biofilm development (p<0.05) compared to cell not treated with antibodies. In both assays, cell growth was observed.

C. neoformans H99 = test: Biofilm development, XTT reduction trial; type: cell-based, Cryptococcus neoformans; conditions: AcM 25 μg/ml, 48 hours at 37° C., vs fungus without treatment, p<0.05
Procedure: as §1, §2, §3, §4
AcMs were compared to AcM anti-GXM 18B7 concerning biofilm development inhibition.

C. neoformans strain H99 = test: Survival trial, lethal i.p. challenge; type: in vivo, Balb/C line mice; conditions: synergic group: AcM 85 μg/animal with AmB 0.25 mg/kg
Procedure: Balb/C line mice (n=7) were lethally challenged via i.p. with 10^5 cells in PBS of C. neoformans (H99) and treated 2 hours later with 100 μl of AmB (2.5 mg/kg and 0.25 mg/kg), 100 μl of AcM (85 μg/ml) and 100 μl of AcM and AmB combined solution (0.25 mg/kg). Control animals were challenged only by C. neoformans (H99) or only with 100 μl of a solution of PBS, AmB (2.5 mg/kg) or AcM (85 μg/ml) without fungus (adapted from Liedke et al.). Survival rate was achieved and analysis was extended up to 90 days after infection, presenting statistical value with p<0.005.
Mice were lethally challenged with inoculant i.p. of 1×10^5 cells of yeast C. neoformans strain H99. After 2 hours, they were treated with PBS (negative control), 85 μg/animal of AcM (HC6/DD11) in isolate form, 0.25 or 2.5 mg/kg of AmB in isolate form, and in synergic form, AcM keeping test concentrations. Treatments were repeated for another two times, with 10-day interval.

Candida albicans = test: Immunofluorescence of AcM anti-chitooligomer against intact cells; type: binding; conditions: AcM 25 μg/mL, 1 h at 37° C.; anti-IgM Alexa 568; calcofluor
Procedure: Fungal cells (10^6 cells)) were fastened (cacodylate paraformolaldehyde buffer 4%; 30 min) and blocked later (PBS/BSA 1%; 1 hour). Then, they were incubated with AcM anti-chitooligomer(25 μg/mL; 1 h at 37° C.) After washing with PBS, cells were incubated with mouse anti-IgM antibody conjugated at Alexa 568 (SIGMA; 1:1000). After PBS washing, cells were incubated with 25 μM of white calcofluor (Invitrogen) and washed again. Cellular suspensions were assembled in glass blades and assessed under microscope Olympus AX70, coupled to camera system (QImaging Retiga 1300) and assessed in QCapture suite V2.46 software.
From reliable and ELISA and Dot Blot trials, biological activity validation tests. Thus, AcMs were used through immunofluorescence (IF), using the pathogen Candida albicans as template. AcMs were efficient at fungal cellular wall labeling, showing the same profile whenever standard marker is used (lectin), data not provided.

B1: HC6/DD11: murine IgM monoclonal antibody against chitooligomers (chitotriose); VH SEQ ID NO: 15, VL SEQ ID NO: 16 (antibody, listed as Mus musculus, V domains shown)
VH: STGQVKLEESGGGLVQPGGSRKLSCAASGFTFSDYGMAWVRQAPGKGPEWVAFISNLAYSIYYADTVTGRFTISRENAKNTLYLEMSSLRSEDTAMYYCARDYYGSSYWYFDVWGAGTTVTAPC
VL: ATNSCISRGEVTITCSASSSVSYMHWFQQKPGTSPKLWIYSTSNLASGVPARFSGSGSGTSYSLTISRMEAEDAATYYCQQRSSYPLTFGAGTKLELKRADAAPTVSLET
ELISA signal in cell saturation curve (C. albicans [1]): slightly more sensitive | biofilm development (XTT reduction) (C. albicans [2]; non-washed cells): reduced biofilm development significantly | biofilm development (XTT reduction) (C. albicans [2]; washed cells): reduced biofilm development significantly | biofilm development (XTT reduction) (C. neoformans H99; non-washed cells): reduced biofilm development significantly | biofilm development (XTT reduction) (C. neoformans H99; washed cells): reduced biofilm development significantly | death of infected animals (C. neoformans strain H99; followed up to 90 days): did not die | survival (C. neoformans strain H99; up to 90 days, n=7): 100% | fungal cellular wall labeling by immunofluorescence (Candida albicans): characteristic polar label
